Data as given in patent US20240294585A1 (MANTRA BIO, published 2024).
Each block holds one binder with its values, some of them ahead of it.

How the values were obtained:
[1] = biological target: T1, Isopeptide(3)_Isopeptide(1)_Isopeptide(2) domains-IGSF8 VLM fusion protein (Homo sapiens (IGSF8 portion)); test: Capillary electrophoresis-Western blot, anti-V5, peptide incubated 3 h at RT with modified EVs (FIG. 13)
T1 construct: Flag-tagged fusion of three isopeptide domains and IGSF8; also called Tricatcher-1-IGSF8; Tricatcher-1-IGSF8 fusion protein
Protocol: (§1) EVs were harvested and purified from producer cells transfected with each of the indicated recombinant isopeptide domain-containing proteins as described above in Example 11. EVs denoted as “Un” were harvested and purified in parallel from untransfected cells. Two additional GPC3 affinity peptide-Isopeptide Tag fusion peptides, namely to either Isopeptide-1 tag or Isopeptide-3 tag, are tested for the ability form a covalent bond (i.e., isopeptide bond) with the IGSF8 fusion proteins comprising IGSF8 as a VLM and an Isopeptide-2 domain (SEQ ID NO: 200 from expression vector in FIG. 2), Isopeptide-1 and Isopeptide-2 domains (SEQ ID NO: 202 from expression vector in FIG. 3) or Isopeptide-1, Isopeptide-2 and Isopeptide-3 domains (SEQ ID NO: 204 from expression vector in FIG. 4; also called Tricatcher-1-IGSF8 fusion protein), indicated as “Iso-2,” “Di” and “Tri,” respectively, for the Isopeptide domain-VLM status (see FIG. 13). GPC3 affinity peptide (PEPN)-Isopeptide-1 Tag fusion peptide and GPC3 affinity peptide-Isopeptide-3 Tag fusion peptide additionally have an S-peptide epitope tag (S-tag) and V5 epitope tag, respectively; while the IGSF fusion proteins all have a Flag epitope tag. […]

[2] = biological target: T1, Isopeptide(3)_Isopeptide(1)_Isopeptide(2 …); test: Capillary electrophoresis-Western blot (Jess), anti-myc, peptide incubated with modified EVs
Protocol: (§2) for a total volume of 50 μL. […] Samples are mixed by repeated pipetting. The microtiter plate is covered, spun at 50×g for 1 min and incubated at RT with shaking on an orbital shaker for 3 hrs. Reaction is terminated by adding 12.5 μL of 5× termination buffer (5% SDS, 300 mM Tris-HCl (pH 6.8)), mixing and transferring to 1.5-mL microfuge tube, and heating the tube to 95° C., 5 min. Samples are analyzed on a combined automated capillary electrophoresis and Western blot system (Jess™ Simple Western system) according to the manufacturer ProteinSimple® (San Jose, CA), using anti-myc or anti-FLAG antibody as a primary antibody followed by a goat anti-mouse secondary antibody-conjugated to horseradish peroxidase for chemiluminescent detection.

[3] = biological target: T2, Isopeptide(2) domain-IGSF8 VLM fusion protein (Homo sapiens (IGSF8 portion)); test: as above
T2 construct: also called Iso-2; isopeptide(2)-IGSF8
T2 chain: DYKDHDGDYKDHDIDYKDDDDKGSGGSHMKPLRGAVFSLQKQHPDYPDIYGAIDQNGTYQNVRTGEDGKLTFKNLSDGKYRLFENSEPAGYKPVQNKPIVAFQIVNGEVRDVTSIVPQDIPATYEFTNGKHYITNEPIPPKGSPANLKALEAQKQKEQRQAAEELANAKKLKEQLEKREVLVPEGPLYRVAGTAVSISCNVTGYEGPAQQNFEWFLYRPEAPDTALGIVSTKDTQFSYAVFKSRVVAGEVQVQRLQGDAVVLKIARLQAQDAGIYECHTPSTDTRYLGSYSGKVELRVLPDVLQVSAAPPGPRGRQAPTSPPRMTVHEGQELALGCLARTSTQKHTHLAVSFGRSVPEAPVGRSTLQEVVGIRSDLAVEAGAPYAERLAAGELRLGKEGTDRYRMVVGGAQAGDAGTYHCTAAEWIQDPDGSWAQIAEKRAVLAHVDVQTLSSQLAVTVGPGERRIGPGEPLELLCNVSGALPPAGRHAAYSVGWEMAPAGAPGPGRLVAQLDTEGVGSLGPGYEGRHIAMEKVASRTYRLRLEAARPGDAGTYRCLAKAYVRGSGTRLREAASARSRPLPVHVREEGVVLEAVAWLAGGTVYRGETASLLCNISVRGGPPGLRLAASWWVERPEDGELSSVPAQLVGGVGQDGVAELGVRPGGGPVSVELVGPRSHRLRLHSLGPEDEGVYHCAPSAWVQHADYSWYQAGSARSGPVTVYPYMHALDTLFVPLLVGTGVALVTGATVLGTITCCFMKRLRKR
Protocol: as §2

[4] = biological target: T3, Isopeptide(1)_Isopeptide(2) domains-IGSF VLM fusion protein (Homo sapiens (IGSF8 portion)); test: as above
T3 construct: also called Di; DiCatcher-IGSF8
Protocol: as §2

[5] = biological target: T2, Isopeptide(2) domain-IGSF8 VLM fusion …; test: Capillary electrophoresis-Western blot (Jess), anti-myc, 50 µM peptide, 3 h at RT with modified EVs
Protocol: as §2

[6] = biological target: T1, Isopeptide(3)_Isopeptide(1)_Isopeptide(2 …); test: Capillary electrophoresis-Western blot, anti-S-tag, peptide incubated 3 h at RT with modified EVs (FIG. 13)
Protocol: as §1

[7] = biological target: T3, Isopeptide(1)_Isopeptide(2) …; test: as above
Protocol: as §1

[8] = biological target: T1, Isopeptide(3)_Isopeptide(1)_Isopeptide(2 …); test: Cy3 fluorescence on SDS-PAGE, conjugate incubated with modified EVs
Protocol: 3 μL 500 mM DTT. Samples are mixed, vortexed briefly, spun and heated to 95° C. for 5 min before loading 15 μL per well of NuPAGE® Bis-Tris precast gel. Gel is run at 125V for 1 hr using 1×2-(N-morpholino)ethanesulfonic acid (MES) buffer, following gel manufacturer recommendation, with the loading dye front permitted to run off the gel in order to better separate high molecular weight bands. Seeblue Plus 2 Pre-stained Standard is used as molecular weight standard to follow the course of the electrophoresis and well as a reference for the determining the apparent molecular weight of the targeting moiety-VLM conjugate, in particular, the 5′-IsoPepTag1-ASO-Tricatcher-1-IGSF8 and 3′-IsoPepTag1-ASO-Tricatcher-1-IGSF8 conjugates.

B1: V5-epitope tagged Isopeptide(3) tag fusion peptide, SEQ ID NO: 244 (peptide)
peptide: THVSPNQGGLPSSGGGGSGGGGGKPIPNPLLGLDSTDPIVMIDNDKPIT
notes: also called N-terminal PEPN + Isopeptide(3) tag
binding result [1]: binds

B2: C-IsoPep2Tag-PEPN (peptide)
peptide: THVSPNQGGLPSSGGGGSGGGGEQKLISEEDLKLGDIEFIKVNK
notes: also called Isopeptide-2 tag-PEPN fusion peptide (tag at C-terminus); N-terminal PEPN + Isopeptide(2) tag
binding result [2]: binds
binding result [3]: binds
binding result [4]: binds

B3: N-IsoPep2Tag-PEPN (peptide)
peptide: KLGDIEFIKVNKSGGGGSGGGGEQKLISEEDLTHVSPNQGGLPS
notes: also called Isopeptide-2 tag-PEPN fusion peptide (tag at N-terminus); C-terminal PEPN + Isopeptide(2) tag
binding result [5]: binds
binding result [2]: binds
binding result [4]: binds

B4: V5-epitope tagged Isopeptide(3) tag fusion peptide, SEQ ID NO: 246 (peptide)
peptide: DPIVMIDNDKPITSGGGGSGGGGGKPIPNPLLGLDSTTHVSPNQGGLPS
notes: also called C-terminal PEPN + Isopeptide(3) tag
binding result [1]: binds

The next lines start with the values.

binding result [6]: binds
binding result [7]: binds
B5: S-tag labeled Isopeptide(1) tag fusion peptide, SEQ ID NO: 238 (peptide)
peptide: AHIVMVDAYKPTKSGGGGSGGGGKETAAAKFERQHMDSTHVSPNQGGLPS
notes: Order is isopeptide-1 tag, linker, S-tag, PEPN; also called C-terminal PEPN + Isopeptide(1) tag

binding result [8]: binds
B6: 3′-IsoPepTag1-ASO (peptide)
peptide: CAHIVMVDAYKPTK
modifications: N-terminal Cys joined by click chemistry to the 3′ end of the antisense oligonucleotide TGC GCT CCT GGA CGT AGC C, which carries Cy3 at its 5′ end
notes: Peptide-oligonucleotide conjugate; also called 3′-IsoPep1Tag-ASO; C-IsoPep1Tag-ASO

binding result [8]: binds
B7: 5′-IsoPepTag1-ASO (peptide)
peptide: AHIVMVDAYKPTKC
modifications: C-terminal Cys joined by click chemistry to the 5′ end of the antisense oligonucleotide TGC GCT CCT GGA CGT AGC C, which carries Cy3 at its 3′ end
notes: Peptide-oligonucleotide conjugate; also called 5′-IsoPep1Tag-ASO; Cy3-labeled IsoPep1Tag-ASO conjugate
